Laboratory results published in patent EP1086956B1.

Target: soluble human VEGF receptor Flt-1 3N (human) (UniProt P17948)
Test: sandwich ELISA, KM1732 coated at 10 µg/ml, detection with biotin-labeled KM1730

Sequence of UniProt P17948 (P17948 27-338 limits assumed): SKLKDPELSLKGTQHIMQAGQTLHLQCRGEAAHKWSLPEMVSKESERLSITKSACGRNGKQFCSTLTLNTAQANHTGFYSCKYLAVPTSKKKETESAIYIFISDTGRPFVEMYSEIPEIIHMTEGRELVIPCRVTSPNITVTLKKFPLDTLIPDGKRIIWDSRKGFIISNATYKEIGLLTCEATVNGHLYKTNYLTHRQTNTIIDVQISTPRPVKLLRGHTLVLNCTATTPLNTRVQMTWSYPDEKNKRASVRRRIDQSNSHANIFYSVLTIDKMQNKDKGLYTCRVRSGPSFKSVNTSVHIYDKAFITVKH

- minimum measurable concentration: 0.46 ng/mL
B1: anti-human VEGF receptor Flt-1 mouse monoclonal antibody KM1732 (antibody, from another filing, mouse IgG1, V domains shown)
VH: QGQMQQSGAELVKPGASVKLSCKPSGFTFSSNYISWLKQKPGQSLEWIAWIYAGTGDASYNQKFTAKAHVTVDTSSSTAYMQLSSLTTEDSAIYYCARHGGDGYWFAYWGQGTLVTVSA
VL: QLVLTQSPAIMSASQGEKVTMTCSASSSVSYMHWYQQKSGTSPKRWIYDTSKLPSGVPARFSGSGSGTSYSLTISSMEAEDAATYYCQQWSSNPPTFGAGTKLELK
